# Data reported in paper PMC10267580.
# B1: Rab6B^Q72L, GTPase domain (residues 8-176), constitutively active mutant [mouse] / ELKS1_RBD, Rab-binding domain of ELKS1 (residues 849-922) [rat] (parent)
# chain 1: RKHLEEVLEMKQEALLAAISEKDANIALLELSSSKKKTQEEVAALKREKDRLVQQLKQQTQNRMKLMADNYEDD
# chain 2: GNPLRKFKLVFLGEQSVGKTSLITRFMYDSFDNTYQATIGIDFLSKTMYLEDRTVRLQLWDTAGLERFRSLIPSYIRDSTVAVVVYDITNLNSFQQTSKWIDDVRTERGSDVIIMLVGNKTDLADKRQITIEEGEQRAKELSVMFIETSAKTGYNVKQLFRRVASALPG
# Variants of: B1
# Assay: ITC
# Details: with ELKS1_RBD
row,Kd [µM],Variant
1,> 50,chain 2 L4E

# Same assay, conditions: with Rab6B^Q72L
row,Kd [µM],Variant
1,26,chain 1 S20A
